Results on 1 substance are retold here after publication PMC7042235.

pKd: −log10 of the molar value.

For the assay, the target named is microtubules (polymerized porcine tubulin) (porcine) (UniProt P02550). The experiment in a line: co-sedimentation; purified MTBDs (1-32 uM) mixed with 5 uM paclitaxel-stabilised porcine MTs; 100 mM PIPES pH 6.8, 50 mM NaCl, 2 mM MgCl2, 1 mM EGTA; 210,000 x g, 25 °C, 10 min; pellets on SDS-PAGE, densitometry, one-site curve fitting.

For “MTBD-WT (microtubule-binding domain of yeast cytoplasmic dynein, K3096-E3232) (from UniProt P36022 3096-3232) (domain or fragment)”, the pKd (usually −log10 of the Kd, conventionally taken in molar units) was 5.17.
